In patent US20230203117A1:

Target: IL-10Rβ on human primary monocytes and CD8 T cells (human) (UniProt Q08334)
Test: cell-based or functional assay

Sequence of IL-10Rβ on human primary monocytes and CD8 T cells (human) (Q08334 20-325): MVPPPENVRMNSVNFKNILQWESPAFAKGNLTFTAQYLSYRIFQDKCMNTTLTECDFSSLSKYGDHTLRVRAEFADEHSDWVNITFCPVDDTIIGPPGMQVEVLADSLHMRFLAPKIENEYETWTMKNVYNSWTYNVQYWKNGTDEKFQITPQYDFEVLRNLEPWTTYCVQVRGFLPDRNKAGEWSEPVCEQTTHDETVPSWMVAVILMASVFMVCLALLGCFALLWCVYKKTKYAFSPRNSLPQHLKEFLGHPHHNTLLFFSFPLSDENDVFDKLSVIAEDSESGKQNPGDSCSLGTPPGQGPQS
Sequence of wild type IL-10 dimer (WTD) (P22301 other isoform, or with tags, fused parts or gaps): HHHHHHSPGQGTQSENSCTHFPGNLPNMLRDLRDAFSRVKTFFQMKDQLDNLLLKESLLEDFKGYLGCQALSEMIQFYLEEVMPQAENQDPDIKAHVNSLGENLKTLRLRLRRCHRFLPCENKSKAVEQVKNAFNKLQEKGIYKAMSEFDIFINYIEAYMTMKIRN

wild type IL-10 dimer (WTD) (from UniProt P22301 19-178) (ligand)
granzyme B production in CD8 T cells, flow cytometry: 2.5 fold
reduction of HLA-DR surface levels in human primary monocytes: 50%

wild type monomeric IL-10 (WTM), recombinant (ligand)
pSTAT1 and pSTAT3 in human CD8 T cells, amplitude of activation (% of the dimeric molecules): < 25
pSTAT1 and pSTAT3 in human monocytes, amplitude of activation (percentage of WTD): < 50
reduction of HLA-DR surface levels in human primary monocytes: 20%
